From patent publication US20230226096A1 (Orna Therapeutics, Inc., priority 2020, published 2023)

B1: Ljungan Virus 87-012 (nucleic acid)
DNA: CTCATTGCCCACACCTGGTTGGTTCCCAGGTTCATACAATAACCATCAATAAACTTTTAACATCTAAGATAGTATTATCCCATACTAGACTGGACGAAGCCGCTTGGAATAAGTCTAGTCTTATCTTGTATGTGTCCTGCACTGAACTTGTTTCTGTCTCTGGAGTGCTCTACACTTCAGTAGGGGCTGTACCCGGGCGGTCCCACTCTTCACAGGAATCTGCACAGGTGGCTTTCACCTCTGGACAGTGCATTCCACACCCGCTCCACGGTAGAAGATGATGTGTGTCTTTGCTTGTGAAAAGCTTGTGAAAATCGTGTGTAGGCGTAGCGGCTACTTGAGTGCCAGCGGATTACCCCTAGTGGTAACACTAGCCTCTGGGCCCAAAAGGCATGTCATTTGACCACTCAGGTACACAACCCCAGTGATGCACACGCTTAGTAATGGCTTAGTAACAAACATTGATTGATCATTTGAAAGCTGTTAGGAGGTTTAGGTATGACGGGCTGAAGGATGCCCTGAAGGTACCCATAGGTAACCTTAAGCGACTATGGATCTGATCAGGGGCCCACCATGTAACACATGGGTAGAAGTCTTCGGACCTTGGGTTAAAAAACGTCTAGGCCCGCCCCCCACAGGGATGTGGGGTTTCCCTTATAACCCCAATATTGTATA
B2: Parechovirus C (nucleic acid)
DNA: CGGTCATCCCCCTTTCCCCACAGCCGGTGTGGGTTCTAATCGGCTCCTACTAAACACCTAAGCATCACTGCGCCTCTATCTCTCCTATCCACAGGTCTAAGACGCTTGGAATAAGACATGTGGGTGCAATAGGAAGATTAGCTAGTCCAATCTCTCCTTCCAGCTACGCTTCTCCCTTCGATGAGCGTAGGGGGGGCCCCCACCTCCCTCATCTCTGGATAGGGCTCTTGCTACGGGGCTTTCCCGTCTGGACCAGCAGGCCCACTGGTGCGCTTCCATTCAAGTTTAGTGTGCATTACTGTCTGAAATATTGCTTTGCTAGGATCTAGTGTAGCGACCTGCATATTGCCAGCGGACTTCCCCACATGGTAACATGTGCCTCTGGGCCCAAAAGGCATGTCTTTGACCGTATGCAGTACAACCCCAGTATAGGTCCTTTCTATGGCAGTATGGATCTCAGTGATGAGTCTATACAGAATATGGAAGTGGTTCGGATATGTCAGCCCGAAGGATGCCCAGAAGGTACCCGCAGATAACCTTAAGAGACTGTGGATCTGATCTGGGGCCCACCACCTTCGGGTGGGTAGAAGCTAACCATGCCTTGGGTTAAAAAACGTCTAAGGGCTGACCAGACCCGGGGGATCCGGGTTTTCCCTATCTTGACCTACTCTAATC
modifications: Parechovirus C
B3: Parechovirus F (nucleic acid)
DNA: GGTCGGGGAGATGTGTTCATGATCGGTTAACACCATCATGGATCATCTCTCCCCGACCTCTTTTTGACCCAGCTATGGGTTAAATAGTACTTTTCTTTTCTCTTTTGCTTTCTTTTGTGTTTTGTTTGTTTTGCAACATATAACAAGCATTTTATCAGTATTAGTGTCTGCAACTGTATAACAAGCAAGGTGGAGCAATCATGCGAGTATATCTCAATTGAATTGTGACACACAAGTGTGCACTATGTGGAATAAATGCCATTTTGGCCAAACCTGGTTAGCCAGACCAGTAGTAGGACAATTTGGCACCCTTAGTGGGCGCGACCTAGATGCTAGGGATGAGCAAACCTATTTCCCCTGAGTACAGGGGCTCTCCTTCACCTCTACATTTTGGACCTCTTTTTGAGTATCCTCGATAGAAGGTGAAGTGACGGTGTACCGGATGGTTAATTGATCTCATTGCTGGGTGACAGCCCGCTAGGACCAGGCAGCATCTTTGTATGGACCTGTACATGTAAC
modifications: Parechovirus F
B4: Parechovirus A8 (nucleic acid, listed as Parechovirus sp.)
DNA: GGGCCTTATACCCCGACTTGCTGAGTTTCTCTAGGAGAGTCCCTTTCCCAGCCCTGAGGCGGCTGGATAATAAAGGCCTCACATGTAACAAACATCTAAGACAAAATAATTTGCCTTGCACCTGGTCCCCACTAGTTGAAGGCATCTAGCAATAAGATGAGTGGAACAAGGACGCTTAAAGTGCAATGATAGTTATCTTTTCTAACCCACTATTTATAGTGGGGTGGTGGATGGCGCACCATAATTCTAATAGTGAGATACCACGCTTGTGGACCTTATGCTCACACAGCCATCCTCTAGTAAGTTTGTGAGACGTCTGGTGACGTGTGGGAACTTACTGGAAACAATGCTTTGCCGTAAGGCTTTCATTAGCCAGCGGACCACCACCTGGTAACAGGTGCCTCTGGGGCCAAAAGCCAAGGTTTAATAGACCCTAATGGAATGGTTCAAACCTGGAGCATTGTGGAAAGTACTTAGTACCTGCTGATCTGGTAGTAATGCAAACACTAGTTGTACGGCCCACGAAGGATGCCCAGAAGGTACCCGTAGGTAACAAGTGACACTATGGATCTGATCTGGGGCCAACTACCTCTATCTTGGTGAGTTGGTTAAAAAACGTCTAGTGGGCCAAACCCAGGGGGGATCCCTGGTTTCCTTTTATTTTACTTTGTCAAT
B5: Halastavi arva (1x mut) (nucleic acid)
DNA: CTTGATTCTAACCTTGCCGTATGGTGCCCTAACGGGTTCATTTAATCATGCGATGAGGGTTGCTATACCGCATCCATTCTAAGGCGATTCAATGCTTCATTTAGGAATTTTGTTGACGATTAAAAGGTACCCCCACAAAAACAAAACCAATCTTACTTGATTTTCGTTTTAACTGACCACTGCGATCCCAAATTTTCGCCTTCTTATCAAAGTATGTTGTGTTCTTTGGGTGTACAACCTGAGAACTTGTCTACAACTACATATTACTCGAGGAAGAAATTCGGTTTAAGCCGTGCCTTCTCACGTTTAGTATATCTATCTGGACACACCTTCTTCATCTTCTAATCCCCATCTAGTCTCCTGATCAGAGACGTCGTTATTAACAAATAACCCCCCTTGTTAATAAGAGACAAAGTACAATCAAGCTAAGTTCTCTTGGAGTTCCTGTAGGAACTTAGCCATTGTGATAGAGTCATAAGTCTATGTGCATAGACAGCTCTAGCTCACCATTTCCTTCCCAACCCATCTTTTCATCAGCTTAACTCTATGAATCCGATGCAAAAACCATTCTAACATCTTATGGTGCTTTCCAAGCCAAATGAGAGCTCACTCTTTTGAGCCGCTATTTAATGGACAATAAACGTTTTATAGTGTACATCATATTGTAAAAACAAA
B6: Parechovirus A2 (nucleic acid, listed as Parechovirus sp.)
DNA: GCCGTCGGGCCTTACACCCCGACTTGCTGAGTTTCTCTAGGAGAGTCCCTTTCCCAGCCAGAGGTGGCTGGTCAAACAATACCAAACGTAACTAAACATCTAAGATAACATAGCCCTATGCCTGGTCTCCACCAGTTGAAGGCATCTTGCAATAAAATGGGTGGATTAAGACGCTTAAAGCATGGAGTCAATTATCTTTTCTAACTAGTGATCTTCACTGGGTGGCAGATGGCGTGCCATAACTCTATTAGTGGGATACCACGCTCGTGGATCTTATGCCCACACAGCCATCCTCTAGTAAGTTTGCAAGGTGTCTGATGAGGCGTGGGAACTTATTGGAAATAATTACTTGCTGCGAAGCATCCTACTGCCAGCGGATCAACACCTGGTAACAGGTGCCCCTGGGGCCAAAAGCCACGGTTTAACAGACCCTTTAGGATTGGTTAAAACCTGAGTAATTATGGAAGATACTTAGTACCTACCAACTTGGTAACAGTGCAAACACTAGTTGTAAGGCCCACGAAGGATGCCCAGAAGGTACCCGCAGGTAACAAGAGACACTGTGGATCTGATCTGGGGCCACCTACCTCTATCCTGGTGAGGTGGTTAAAAAACGTCTAGTGGGCCAAACCCAGGGGGGATCCCTGGTTTCCTTATTTTAGTGTAAATGTCATT
B7: HAV HM175 (nucleic acid)
DNA: CGCCGTTTGCCTAGGCTATAGGCTAAATTTTCCCTTTCCCTTTTCCCTTTCCTATTCCCTTTGTTTTGCTTGTAAATATTGATTTGTAAATATTGATTCCTGCAGGTTCAGGGTTCTTAAATCTGTTTCTCTATAAGAACACTCATTTCACGCTTTCTGTCTTCTTTCTTCCAGGGCTCTCCCCTTGCCCTAGGCTCTGGCCGTTGCGCCCGGCGGGGTCAACTCCATGATTAGCATGGAGCTGTAGGAGTCTAAATTGGGGACACAGATGTTTGGAACGTCACCTTGCAGTGTTAACTTGGCTTTCATGAATCTCTTTGATCTTCCACAAGGGGTAGGCTACGGGTGAAACCTCTTAGGCTAATACTTCTATGAAGAGATGCCTTGGATAGGGTAACAGCGGCGGATATTGGTGAGTTGTTAAGACAAAAACCATTCAACGCCGGAGGACTGACTCTCATCCAGTGGATGCATTGAGTGGATTGACTGTCGGGGCTGTCTTTAGGCTTAATTCCAGACCTCTCTGTGCTTGGGGCAAACATCATTTGGCCTTAAATGGGATTCTGTGAGAGGGGATCCCTCCATTGCCAGCTGGACTGTTCTTTGGGGCCTTATGTGGTGTTTGCCGCTGAGGTACTCAGGGGCATTTAGGTTTTTCCTCATTCTTAAATAATA
modifications: Hepatovirus A
B8: Parechovirus D (nucleic acid)
DNA: ACATGGGGCAGGTGTGCTGTGCCAAGAGCAACACTACGGTGGCCGAGCCGATGGTTCGTCACCACGTAGTAGGACTCCGTAGTGCTTGGTTACGGCGGACGTAAGTCAGTTGAGTGATGTCTAAGTGGCAAACCATGAGTACATGGTAACCTTGTGTGGACTCGCGGGACGGAATTTCCTATCCCATTGACTCCTTGTAGCAAGGTGGGTATACCCAACCACAATGGCAGCACCCTGGGTGGGAACCCAGGGGCCTGGATTAGTATCCAGTCACACAGCCTGATAGGGTGGCGGCTCAGCCACTGACCAGCGTCTCTAAATAATTGTGAGCTGTTCATGCACC
modifications: Parechovirus D
B9: Parechovirus A3 (nucleic acid, listed as Parechovirus sp.)
DNA: AGAGTCCTTTTCCCAGCCAGAGGTGGCTGGTTAAATAATACCTACTGTAACAAAACATCTAAGATGTAACAACCACACACCTGGTCTCCACTGGCCGAAGGCAACTAGCAATAAGGCAGGTGGGTTCAGACGCTTAAAGTGTGTTGTACATATTCTTTTCTAACCTGTGTTTTACACAGGGTGGCAGATGGCGTGCCATAACTCTAACAGTGAGATACCACGCTTGTGGACCTTATGCTCACACAGCCATCCTCTAGTAAGTTTGTAAGATGTCTGATGACGTGTGGGAACCTGTTGGAGATAACAGTTTGCTGCAAAGCATCCCACTGCCAGCGGATCTACATCTGGTAACAGATGCCTCTGGGGCCAAAAGCCAAGGTTTAACAGACCCTTTGGGATTGGTTCAAACCTGAACTGTTATGGAAGACATTTAGTACCTGCTGATTTGGTAGTAATGCAAACACTAGTTGTAAGGCCCACGAAGGATGCCCAGAAGGTACCCGTAGGTAACAAGTGGCACTATGGATCTGATCTGGGGCCAGCTACCTCTATCTTGGTGAGTTGGTTAAAAAACGTCTAGTGGGCCAAACCCAGGGGGGATCCTGGTTTCTTTTTAATTTAAGTAATCACT

System: HEK293 cells
Format: cell-based, human
Details: luminescence from secreted Gluc in supernatant 24 hours after transfection of HEK293 cells; circular RNA encoding Gluc with the named IRES (UTR truncated to 675 nt)

In order of falling Expression:
1. B6  1.80E+07
2. B4  1.61E+07
3. B9  3.58E+06
4. B1  2.00E+06
5. B2  1.24E+06
6. B3  6.56E+05
7. B7  4.96E+05
8. B8  3.10E+05
9. B5  9.46E+04
